In patent publication US20110014669A1, “Production of 1,4 Butanediol in a Microorganism” (Microbia, Inc., priority 2009, published 2011):

Columns and labels:
5-hydroxy-L-norvaline [1] = assay: In vitro substrate conversion assay, step A4; assay type: biochemical; parameters: key: +: measureable activity detected in the assay; −: no measurable activity detected in the assay; conditions: BDO biosynthetic pathway step A4
Method: (§1) In Vitro Substrate Conversion. Most of the enzyme assays described above are based on recording changes in absorbance at a given wavelength. In addition to such spectrophotometric readouts, these assays can also be analyzed by more direct methods using an endpoint assay where the reaction is terminated after a given period of time and the mixture is analyzed via HPLC or LC-MS methods.
(§2) The aldehyde dehydrogenase linked reaction was used for step A5.

5-hydroxy-L-norvaline [2] = assay: Enzyme assay, aminotransferase (step A4), cell lysates; assay type: biochemical; parameters: key: +: measureable activity detected in the assay; −: no measurable activity detected in the assay; conditions: BDO biosynthetic pathway step A4
Method: (§3) Enzyme expression and crude lysate preparation. The enzymatic activity of each candidate enzyme is evaluated, first in E. coli and subsequently in C. glutamicum. It will be apparent to one of skill in the art that the expression and lysate preparations may need to be modified depending on the host cell and recombinant gene of interest.
(§4) E. coli: E. coli strains transformed with expression clones, for example, pUC18 or MB4124 based clones having a medium strong constitutive promoter regulating the recombinant gene of interest, are grown aerobically in LB medium (Difco) containing the appropriate antibiotic(s). At an OD600 of 0.5, IPTG is added to a final concentration of 0.25 mM. The cultures are grown to a final OD600 of 1.5 at which time the cells are collected and harvested by centrifugation. Cell pellets are resuspended in BugBuster (Novagen) reagent containing benzonase and lysozyme. Alternatively, E. coli strains transformed with expression clones, are grown overnight aerobically at 37° C. in BHI containing the appropriate antibiotic(s). 300 μL of fresh overnight culture is used to inoculate 2.7 mL BHI containing 0.25 mM IPTG and the appropriate antibiotic. The cultures are grown aerobically for 4-5 hours at 37° C. at which time the cells are collected and harvested by centrifugation. Cell pellets are frozen at −80° C. for at least 15 minutes, then thawed and resuspended in BugBuster (Novagen) reagent. Lysis and lysate collection are performed according to the manufacturer's instructions and, for example, may involve use of a sonicator and/or French press. Cleared lysates are stored on ice until enzyme assays are performed.
C. glutamicum: C. glutamicum strains transformed with MB4124 expression clones containing the recombinant gene of interest are grown aerobically in BHI broth supplemented with the proper antibiotic(s). At an OD600 of 0.5, IPTG is added to a final concentration of 0.25 mM. The cultures are grown to a final OD600 of 1.5 at which time the cells are collected and harvested by centrifugation. The pellet is washed once in one volume of water and resuspended in lysis buffer (1.0 ml 1.0 M HEPES buffer, pH 7.5, 0.5 ml 1M KOH, 10 μl 0.5M EDTA, protease inhibitor cocktail, water to 5 ml; the final pH will vary depending on the individual enzyme being tested) and one volume of 0.1 mm acid washed glass beads. The mixture is repeatedly alternately vortexed and held on ice for 15 seconds, eight times. After centrifugation for 5 min at 4,000 rpm, the supernatant lysate is removed and respun for 20 min at 10,000 rpm. Alternatively, C. glutamicum strains transformed with MB4124 expression clones containing the recombinant gene of interest are grown aerobically overnight in BHI broth supplemented with the proper antibiotic(s). Five mL of fresh overnight culture is used to inoculate 200 mL BHI containing 0.25 mM IPTG and the appropriate antibiotic. The cultures are grown aerobically at 30° C. for 5-7 hours at which time the cells are collected and harvested by centrifugation at 4° C. The pellet is resuspended in 15 mL ice cold 39 mM KH2PO4, 61 mM K2HPO4, 0.5 M KCl and lysed using a BioSpec BeadBeater and following the manufacturer's instructions. […]
(§5) Protein Assays. Protein concentrations in lysates are determined according to the methods of Bradford et al. (Anal. Biochem. 72:248-254 [1976]) or by the method of Smith et al. (Anal. Biochem. 150(1):76-85 [1985]) and lysates are assayed according to the methods below. […]

5-hydroxy-L-norvaline [3] = assay: Bioconversion (feeding) assay, step A4; assay type: cell-based; parameters: key: +: measureable activity detected in the assay; −: no measurable activity detected in the assay; conditions: BDO biosynthetic pathway step A4
Method: (§6) Bioconversion assays. The activity of a candidate enzyme towards a given substrate can also be evaluated in vivo using a simple feeding assay. A strain expressing the candidate enzyme is grown in the presence of the substrate for which activity is desired. Samples of the culture are removed periodically and the cells are removed via centrifugation. The culture supernatant is then analyzed (e.g., by LC-MS) to determine how much of the substrate has been removed and how much of a given product is present.
as §2

[4] = system: 5-hydroxy-2-oxopentanoate; assay: Enzyme assay, decarboxylase (step A5), aldehyde dehydrogenase linked reaction; assay type: biochemical; parameters: key: +: measureable activity detected in the assay; −: no measurable activity detected in the assay; conditions: BDO biosynthetic pathway step A5
How it was run: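 Crude lysates of E. coli or C. glutamicum expressing the candidate decarboxylase (0.25 mM IPTG induction) were assayed against vector-only control lysates, using natural substrate and pathway metabolite. Decarboxylation was coupled to aldehyde dehydrogenase converting the aldehyde product to acid with NAD+ reduction, followed as absorbance increase at 340 nm.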

[5] = system: 3-methyl-2-oxopentanoate (3-MOP); assay: Kinetics of purified His-tagged KdcAL1 on 3-MOP (aldehyde dehydrogenase linked reaction); assay type: biochemical; conditions: substrate 3-MOP; purified His-tagged enzyme
Method: (§7) Aldehyde Dehydrogenase linked reaction: In another example of a coupled assay, the decarboxylation of a substrate is linked to the activity of an aldehyde dehydrogenase (Sigma catalog number A6338) reaction that converts the aldehyde product to a carboxylic acid with the concomitant reduction of NAD+. The overall activity of the coupled reactions is assessed spectrophotometrically by measuring the increase in absorbance at 340 nm which corresponds to the NAD+ reduction. One enzyme unit is defined as the amount of enzyme that catalyzes the decarboxylation of 1 μmol of substrate per minute.
(§8) Standard molecular biology techniques were used to create an E. coli expression construct encoding KdcAL1 having three histidine (His) residues attached to its C-terminus. This His-tagged enzyme was over-expressed in E. coli, purified and assayed to assess its activity towards a natural substrate, 3-methyl-2-oxopentanoate (3-MOP) and its BDO pathway substrate, 5-hydroxy-2-oxopentanoate (5-HOP). The purified enzyme was assayed as described in example 3 above (step A5, Aldehyde dehydrogenase linked reaction). […] This Vmax is about 10 times lower than the rate of 3-MOP activity.

[6] = system: 5-hydroxy-2-oxopentanoate (5-HOP); assay: Kinetics of purified His-tagged KdcAL1 on 5-HOP (aldehyde dehydrogenase linked reaction); assay type: biochemical
Method: as §7, §8

[7] = system: 5-hydroxy-2-oxopentanoate; assay: In vitro substrate conversion assay, step A5; assay type: biochemical; parameters: key: +: measureable activity detected in the assay; −: no measurable activity detected in the assay; conditions: BDO biosynthetic pathway step A5
Method: as §1, §2

[8] = system: 5-hydroxy-2-oxopentanoate; assay: Bioconversion (feeding) assay, step A5; assay type: cell-based; parameters: key: +: measureable activity detected in the assay; −: no measurable activity detected in the assay; conditions: BDO biosynthetic pathway step A5
Method: as §6, §2

4-hydroxybutanal [9] = assay: In vitro substrate conversion assay, step A6; assay type: biochemical; parameters: key: +: measureable activity detected in the assay; −: no measurable activity detected in the assay; conditions: BDO biosynthetic pathway step A6
Method: as §1, §2

4-hydroxybutanal [10] = assay: Bioconversion (feeding) assay, step A6; assay type: cell-based; parameters: key: +: measureable activity detected in the assay; −: no measurable activity detected in the assay; conditions: BDO biosynthetic pathway step A6
Method: as §6, §2

4-hydroxybutanal [11] = assay: Enzyme assay, oxidoreductase (step A6), cell lysates; assay type: biochemical; parameters: key: +: measureable activity detected in the assay; −: no measurable activity detected in the assay; conditions: BDO biosynthetic pathway step A6
Method: as §3
as §4, with “performed. […]” for “performed.”
as §5

B1: BcaTPf: Branched-chain-amino-acid transaminase from Pseudomonas fluorescens, step A4 enzyme candidate, SEQ ID NO. 58 (protein, listed as Pseudomonas fluorescens)
chain: MGNESINWDKLGFDYIKTDKRFLQVWKNGEWQEGTLTDDNVLHISEGSTALHYGQQCFEGLKAYRCKDGSINLFRPDQNAARMQRSCARLLMPHVPTDVFIDACKQVVKANEHFIPPYGSGGALYLRPFVIGTGDNIGVRTAPEFIFSVFCIPVGAYFKGGLVPHNFQISTFDRAAPQGTGAAKVGGNYAASLMPGSEAKKAGFADAIYLDPMTHSKIEEVGSANFFGITHDNQFITPKSPSVLPGITRLSLIELAKTRLGLDVVEGEVFIDKLDQFKEAGACGTAAVISPIGGIQYNGKLHVFHSETEVGPITQKLYKELTGVQTGDVEAPQGWIVKV
- In Vitro Substrate Conversion Assay (5-hydroxy-L-norvaline [1]): +
- Enzyme Assay (5-hydroxy-L-norvaline [2]): +
- Bioconversion Assay (5-hydroxy-L-norvaline [3]): +

B2: KdcALl: Branched-chain alpha-keto acid decarboxylase from Lactococcus lactis, step A5 enzyme candidate, SEQ ID NO. 36; His-tagged when purified (protein, listed as Lactococcus lactis)
chain: MYTVGDYLLDRLHELGIEEIFGVPGDYNLQFLDQIISREDMKWIGNANELNASYMADGYARTKKAAAFLTTFGVGELSAINGLAGSYAENLPVVEIVGSPTSKVQNDGKFVHHTLADGDFKHFMKMHEPVTAARTLLTAENATYEIDRVLSQLLKERKPVYINLPVDVAAAKAEKPALSLEKESSTTNTTEQVILSKIEESLKNAQKPVVIAGHEVISFGLEKTVTQFVSETKLPITTLNFGKSAVDESLPSFLGIYNGKLSEISLKNFVESADFILMLGVKLTDSSTGAFTHHLDENKMISLNIDEGIIFNKVVEDFDFRAVVSSLSELKGIEYEGQYIDKQYEEFIPSSAPLSQDRLWQAVESLTQSNETIVAEQGTSFFGASTIFLKSNSRFIGQPLWGSIGYTFPAALGSQIADKESRHLLFIGDGSLQLTVQELGLSIREKLNPICFIINNDGYTVEREIHGPTQSYNDIPMWNYSKLPETFGATEDRVVSKIVRTENEFVSVMKEAQADVNRMYWIELVLEKEDAPKLLKKMGKLFAEQNK
modifications: His-tag when purified
- Enzyme Assay [4]: +
- Km [5]: 1.3 mM
- Vmax for 5-HOP lower than the rate of 3-MOP activity ([6]; 5-HOP versus 3-MOP): about 10 times
- Km ([6]; substrate 5-HOP, purified His-tagged enzyme): 49 mM
- Vmax ([6]; substrate 5-HOP, purified His-tagged enzyme, FIG. 24): approximately 0.15 U/mg
- In Vitro Substrate Conversion Assay [7]: +
- Bioconversion Assay [8]: +

B3: ADH6Sc: Alcohol dehydrogenase from Saccharomyces cerevisiae, step A6 enzyme candidate, SEQ ID NO. 47 (protein, listed as Saccharomyces cerevisiae)
chain: MSYPEKFEGIAIQSHEDWKNPKKTKYDPKPFYDHDIDIKIEACGVCGSDIHCAAGHWGNMKMPLVVGHEIVGKVVKLGPKSNSGLKVGQRVGVGAQVFSCLECDRCKNDNEPYCTKFVTTYSQPYEDGYVSQGGYANYVRVHEHFVVPIPENIPSHLAAPLLCGGLTVYSPLVRNGCGPGKKVGIVGLGGIGSMGTLISKAMGAETYVISRSSRKREDAMKMGADHYIATLEEGDWGEKYFDTFDLIVVCASSLTDIDFNIMPKAMKVGGRIVSISIPEQHEMLSLKPYGLKAVSISYSALGSIKELNQLLKLVSEKDIKIWVETLPVGEAGVHEAFERMEKGDVRYRFTLVGYDKEFSD
- In Vitro Substrate Conversion Assay (4-hydroxybutanal [9]): +
- Bioconversion Assay (4-hydroxybutanal [10]): +
- Enzyme Assay (4-hydroxybutanal [11]): +
